According to patent US20240262923A1 (Sanofi, published 2024):
Read-outs that look alike come from different tables or passages of the source. Blank lines part the entries; values can stand above or below the binder they belong to.

How the values were obtained:
[1] = molecular target: T1, human PD-1 expressed on cells (300.19 pre-B cells, PD-1 NFAT-luc2 Jurkat cells, primary T-cells) (human, UniProt Q15116 25-288); assay: cell-based or functional assay
[2] = molecular target: T2, human 4-1BB expressed on cells (300.19 pre-B cells, Jurkat NF-κB-luc2P cells, primary T-cells) (human, UniProt Q07011 24-255); assay: cell-based or functional assay
T2 sequence (Q07011 24-255 limits assumed): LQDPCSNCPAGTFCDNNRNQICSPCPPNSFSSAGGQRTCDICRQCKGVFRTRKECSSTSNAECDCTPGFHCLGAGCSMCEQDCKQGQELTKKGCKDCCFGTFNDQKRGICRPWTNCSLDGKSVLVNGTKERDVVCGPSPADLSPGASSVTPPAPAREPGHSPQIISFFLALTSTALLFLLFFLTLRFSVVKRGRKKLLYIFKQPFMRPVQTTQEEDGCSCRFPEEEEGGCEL

[3] = molecular target: T3, human 4-1BB (SPR analyte) (human, UniProt Q07011 24-186); assay: SPR (Biacore 8K), binder captured on anti-Fc chip, target as analyte, 1:1 model
T3 construct: also called h4-1BB

[4] = molecular target: T4, cynomolgus monkey 4-1BB (SPR analyte) (cynomolgus monkey, UniProt A9YYE7 24-186); assay: as above
T4 construct: also called cy4-1BB
T4 sequence: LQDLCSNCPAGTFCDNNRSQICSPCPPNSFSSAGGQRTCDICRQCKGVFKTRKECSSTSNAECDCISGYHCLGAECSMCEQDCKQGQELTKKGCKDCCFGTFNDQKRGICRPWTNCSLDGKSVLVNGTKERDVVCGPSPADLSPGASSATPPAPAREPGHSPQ

[5] = molecular target: T1, human PD-1 expressed on cells (300.19 …); assay: flow cytometry on Jurkat reporter cells
[6] = molecular target: T2, human 4-1BB expressed on cells (300.19 …); assay: flow cytometry on Jurkat reporter cells
human PD-1 (SPR analyte) [7] = molecular target: T5, human PD-1 (SPR analyte) (human, UniProt Q15116 25-167, limits assumed); assay: SPR (Biacore 8K), binder captured on anti-Fc chip, target as analyte, 1:1 model
T5 construct: Soluble analyte in SPR; also called hPD-1
T5 sequence (Q15116 25-167 limits assumed): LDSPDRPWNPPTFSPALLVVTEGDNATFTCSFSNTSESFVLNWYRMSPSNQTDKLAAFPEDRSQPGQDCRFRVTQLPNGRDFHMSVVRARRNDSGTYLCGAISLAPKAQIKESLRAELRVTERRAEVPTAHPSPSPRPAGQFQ

[8] = molecular target: T6, cynomolgus monkey PD-1 (SPR analyte) (cynomolgus monkey, UniProt B0LAJ3 25-170); assay: as above
T6 construct: also called cyPD-1
T6 sequence (B0LAJ3 entry or part of it limits assumed): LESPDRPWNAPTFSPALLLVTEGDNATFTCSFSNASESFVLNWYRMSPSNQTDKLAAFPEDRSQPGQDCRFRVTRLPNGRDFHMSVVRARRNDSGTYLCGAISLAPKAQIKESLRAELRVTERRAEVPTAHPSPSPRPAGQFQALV

[9] = molecular target: T7, cynomolgus monkey 4-1BB expressed on 300.19 pre-B cells (cynomolgus monkey, UniProt A9YYE7 24-254); assay: flow cytometry on transfected 300.19 pre-B cells
T7 construct: whole, on cells; also called cy4-1BB; Pre-B cy4-1BB

[10] = molecular target: T1, human PD-1 expressed on cells (300.19 …); assay: flow cytometry on transfected 300.19 pre-B cells
[11] = molecular target: T8, cynomolgus monkey PD-1 expressed on 300.19 pre-B cells (cynomolgus monkey, UniProt B0LAJ3 25-288); assay: flow cytometry on transfected 300.19 pre-B cells
T8 construct: also called cyPD-1; Pre-B cyPD-1
T8 sequence (B0LAJ3 entry or part of it limits assumed): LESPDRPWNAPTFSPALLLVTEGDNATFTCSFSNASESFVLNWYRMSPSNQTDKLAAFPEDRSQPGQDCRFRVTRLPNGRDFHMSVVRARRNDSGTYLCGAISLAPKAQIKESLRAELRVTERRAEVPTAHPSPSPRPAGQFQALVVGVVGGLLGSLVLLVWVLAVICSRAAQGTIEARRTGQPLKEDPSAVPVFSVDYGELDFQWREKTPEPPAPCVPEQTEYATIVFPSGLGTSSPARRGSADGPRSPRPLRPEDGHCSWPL

[12] = molecular target: T2, human 4-1BB expressed on cells (300.19 …); assay: flow cytometry on transfected 300.19 pre-B cells
[13] = molecular target: T6, cynomolgus monkey PD-1 (SPR analyte); assay: SPR, KD on cyPD-1 against KD on hPD-1
[14] = molecular target: T3, human 4-1BB (SPR analyte); assay: SPR (Biacore 8K), binder captured on anti-Fc chip, target as analyte, 1:1 model; remark: listed apart in the source
human PD-1 (SPR analyte) [15] = molecular target: T5, human PD-1 (SPR analyte); assay: as above; remark: listed apart in the source
[16] = molecular target: T4, cynomolgus monkey 4-1BB (SPR analyte); assay: SPR, KD on cy4-1BB against KD on h4-1BB
[17] = molecular target: T9, human His-tagged 4-1BB recombinant protein (human, UniProt Q07011 24-186); assay: ELISA (FIG. 7A), bivalent monoparatopic Fab-like
T9 construct: also called human 4-1BB; h4-1BB; not shown: His tag

[18] = molecular target: T10, PD-1 in the PD-1/PD-L1 interaction assay (human, UniProt Q15116 25-167, limits assumed); assay: PD-1/PD-L1 interaction assay, Relative EC50, IgG1 LALA
T10 sequence (Q15116 25-167 limits assumed): as the sequence (Q15116 25-167 limits assumed) above

[19] = molecular target: T1, human PD-1 expressed on cells (300.19 …); assay: flow cytometry on anti-CD3-stimulated primary human T-cells
[20] = molecular target: T10, PD-1 in the PD-1/PD-L1 interaction assay; assay: PD-1/PD-L1 interaction assay, Relative EC50, Fab
[21] = molecular target: T10, PD-1 in the PD-1/PD-L1 interaction assay; assay: PD-1/PD-L1 interaction assay, EC50 of Fab against IgG1 LALA

T1 sequence (Q15116 25-288 limits assumed): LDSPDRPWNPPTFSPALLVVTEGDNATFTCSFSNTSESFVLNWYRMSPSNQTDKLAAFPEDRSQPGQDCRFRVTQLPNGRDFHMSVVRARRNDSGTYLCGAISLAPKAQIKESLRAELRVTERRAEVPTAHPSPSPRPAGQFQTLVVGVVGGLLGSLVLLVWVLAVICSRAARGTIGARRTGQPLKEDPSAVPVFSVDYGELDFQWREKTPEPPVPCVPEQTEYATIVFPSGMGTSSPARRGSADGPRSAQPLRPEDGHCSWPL

- IC50 (nM) PD-1 reporter assay [1]: 6.7 nM
- EC50 (nM) 4-1BB reporter assay [2]: 0.1 nM
- Kd [3]: 11.8 nM
- Kd [4]: 25.1 nM
- EC50 [5]: 12.3 nM
- Emax [5]: 321 MFI
- EC50 [6]: 0.191 nM
- Kd (human PD-1 (SPR analyte) [7]): 7.05 nM
- Kd [8]: 18.2 nM
- EC50 [9]: 0.312 nM
- EC50 [10]: 3.69 nM
- Emax [10]: 3750 MFI
- EC50 [11]: 7.77 nM
- Emax [11]: 13800 MFI
- EC50 [12]: 0.299 nM
- Ratio KD cyno/human [13]: 2.6 fold
- Kd [14]: 7.82 nM
- Kd (human PD-1 (SPR analyte) [15]): 16 nM
- Ratio KD cyno/human [16]: 2.1 fold
B1: Construct #3 (anti-4-1BB/anti-PD-1 bispecific binding molecule) (bispecific antibody, IgG1)
heavy: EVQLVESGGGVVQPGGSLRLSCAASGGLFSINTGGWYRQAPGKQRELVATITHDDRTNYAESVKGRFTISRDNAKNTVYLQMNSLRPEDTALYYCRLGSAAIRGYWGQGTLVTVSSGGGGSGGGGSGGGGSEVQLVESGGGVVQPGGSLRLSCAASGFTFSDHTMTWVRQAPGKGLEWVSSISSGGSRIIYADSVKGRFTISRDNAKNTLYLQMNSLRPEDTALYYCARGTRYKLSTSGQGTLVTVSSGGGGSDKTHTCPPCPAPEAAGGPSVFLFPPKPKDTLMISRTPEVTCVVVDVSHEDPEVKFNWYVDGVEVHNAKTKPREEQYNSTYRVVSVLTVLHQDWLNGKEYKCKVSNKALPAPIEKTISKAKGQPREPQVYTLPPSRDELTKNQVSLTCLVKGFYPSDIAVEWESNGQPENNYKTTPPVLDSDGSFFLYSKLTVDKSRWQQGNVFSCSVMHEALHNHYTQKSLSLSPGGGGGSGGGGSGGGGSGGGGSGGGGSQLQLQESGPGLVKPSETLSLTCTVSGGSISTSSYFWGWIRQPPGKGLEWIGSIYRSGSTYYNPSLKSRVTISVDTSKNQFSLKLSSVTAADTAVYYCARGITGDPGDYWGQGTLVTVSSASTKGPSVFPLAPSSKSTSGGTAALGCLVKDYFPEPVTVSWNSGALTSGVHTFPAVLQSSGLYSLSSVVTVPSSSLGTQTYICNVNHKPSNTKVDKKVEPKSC
light: EIVLTQSPATLSLSPGERATLSCGASQSVSINFLAWYQQKPGLAPRLLIYEASSRATGIPDRFSGSGSGTDFTLTISRLEPEDFAVYYCQQYGSSPYTFGQGTKLEIKRTVAAPSVFIFPPSDEQLKSGTASVVCLLNNFYPREAKVQWKVDNALQSGNSQESVTEQDSKDSTYSLSSTLTLSKADYEKHKVYACEVTHQGLSSPVTKSFNRGEC
notes: also called Original Construct #3

- binding result [17]: binds
B2: anti-4-1BB clone #5c VHH, bivalent monoparatopic Fab-like construct (other)
chain 1: QVQLQESGGGLVQAGGSLRLSCAASGDTFSSYAMGWFRQAPGERLEWVASINPSGGSQSYHPSVKDRFTISRDNGKNILFLQLDKLNPEDTAVYVCARGTRYKIFASGQGTQVTVSS
chain 2: QVQLQESGGGLVQAGGSLRLSCAASGDTFSSYAMGWFRQAPGERLEWVASINPSGGSQSYHPSVKDRFTISRDNGKNILFLQLDKLNPEDTAVYVCARGTRYKIFASGQGTQVTVSS
notes: not shown: human CL (lambda) constant domain, tag if any; human IgG1 CH1 domain, HA and 6-His tags

- IC50 (nM) PD-1 reporter assay [1]: 2.8 nM
- EC50 [5]: 0.278 nM
- Emax [5]: 280 MFI
- binding result [9]: no binding
- EC50 [10]: 0.284 nM
- Emax [10]: 6240 MFI
- EC50 [11]: 0.417 nM
- Emax [11]: 17700 MFI
- binding result [12]: no binding
- EC50 [18]: 0.278 nM
- EC50 [19]: 0.205 nM
B3: anti-PD-1 antibody clone T5 (IgG1 LALA) (antibody, V domains shown)
VH: QLQLQESGPGLVKPSETLSLTCTVSGGSISTSSYFWGWIRQPPGKGLEWIGSIYRSGSTYYNPSLKSRVTISVDTSKNQFSLKLSSVTAADTAVYYCARGITGDPGDYWGQGTLVTVSS
VL: EIVLTQSPATLSLSPGERATLSCGASQSVSINFLAWYQQKPGLAPRLLIYEASSRATGIPDRFSGSGSGTDFTLTISRLEPEDFAVYYCQQYGSSPYTFGQGTKLEIK

- EC50 [20]: 48.8 nM
- Ratio Fab:IgG1 [21]: 176 fold
B4: anti-PD-1 antibody clone T5, Fab format (Fab, V domains shown)
VH: QLQLQESGPGLVKPSETLSLTCTVSGGSISTSSYFWGWIRQPPGKGLEWIGSIYRSGSTYYNPSLKSRVTISVDTSKNQFSLKLSSVTAADTAVYYCARGITGDPGDYWGQGTLVTVSS
VL: EIVLTQSPATLSLSPGERATLSCGASQSVSINFLAWYQQKPGLAPRLLIYEASSRATGIPDRFSGSGSGTDFTLTISRLEPEDFAVYYCQQYGSSPYTFGQGTKLEIK
